According to paper PMC10395195:

What was measured:
[1] = biological target: Tle1^Vc (Vibrio cholerae E1); test: SPR
[2] = biological target: Tle1^Vc (Vibrio cholerae E1); test: ITC

Row | Substance | Kd [1] | Kd [2]
1 | VgrG1^E1 (natural protein) | 2030 nM | 
2 | Tli1^tox- (natural protein) |  | 0.35 nM
